Assay results from patent US6613531B2, “Sigma binding region of RNA polymerase and uses thereof” (priority 2000, dated 2003).

What was measured:
[1] = target: labeled σ^70 and β′ (Escherichia coli, UniProt P00579+P0A8T7, C132S/C291S/C295S/S442C); settings: 10 nM labeled σ^70, 50 nM labeled β′
Experimental: The assay was performed in NTG-buffer (200 μL total volume) plus 2.5% DMSO (when insoluble additives were used) with 10 nM σ^70* (labeled protein) and 50 nM β′* (labeled protein). Labeled σ^70 was added first to the assay, then the potential inhibitor and denatured labeled β′ was added last, mixing the solution well after the addition of each component. The mixture was incubated for 5 minutes at RT and measured in a 96-well plate (Costar 3650) with a multi-plate reader (Wallac, VictorV^2 1420). For this time-resolved fluorescence measurement, the manufacturer's protocol (LANCE high count 615/665) was used (excitation with 1000 flashes, at 325 nm, measurement was delayed by 100 μs and acquired for 50 μs at 615 and 665 nm). […] The IC5-emission is corrected for the very small amount of signal from the Eu-emission band (by cross talk measurement of a standard) and then divided by the intensity of the Eu signal. […] The nature of this method allows the differentiation of the loss of signal due to real inhibition from simple absorption caused by the inner filter effect from the substance.

[2] = target: T1, σ^70 (Escherichia coli, UniProt P00579); settings: for ability to bind σ^70 compared to wt β′1-319 fragment: normalized to amount of fragment
Experimental: Cells containing truncated β′ expression plasmids pTA610-620 were grown to an A600 of 0.6-0.8 and induced with 1 mM IPTG. The cells were grown for an additional 30 minutes. A 200 μl sample was removed and sonicated 3×30 seconds. Twenty μl of glycerol and 20 μl of SDS-sample buffer were added and heated for 2 minutes at 95° C. then stored at −20° C. until use. The lysates were separated by SDS-PAGE. The proteins were electrophoretically transferred onto 0.05 μm nitrocellulose.
The blot was dried and the signal was visualized with a PhosphorImager and quantitated with IMAGEQUANT software (Molecular Dynamics).
This method was initially employed to detect the functionality of the β′ mutants. The mutations were cloned into a gene fragment coding for amino acid residues 1-319 of the β′ subunit. […] Samples were analyzed for binding σ^70 by far Western analysis The amount of σ^70 probe bound by each β′1-319 mutant fragment was compared to the amount bound by wt β′1-319 fragment. Each signal was normalized to the amount of β′1-319 contained in the supernatant as determined by Western blotting.
Target sequence in this assay (P00579 whole entry, the tested form may be a part): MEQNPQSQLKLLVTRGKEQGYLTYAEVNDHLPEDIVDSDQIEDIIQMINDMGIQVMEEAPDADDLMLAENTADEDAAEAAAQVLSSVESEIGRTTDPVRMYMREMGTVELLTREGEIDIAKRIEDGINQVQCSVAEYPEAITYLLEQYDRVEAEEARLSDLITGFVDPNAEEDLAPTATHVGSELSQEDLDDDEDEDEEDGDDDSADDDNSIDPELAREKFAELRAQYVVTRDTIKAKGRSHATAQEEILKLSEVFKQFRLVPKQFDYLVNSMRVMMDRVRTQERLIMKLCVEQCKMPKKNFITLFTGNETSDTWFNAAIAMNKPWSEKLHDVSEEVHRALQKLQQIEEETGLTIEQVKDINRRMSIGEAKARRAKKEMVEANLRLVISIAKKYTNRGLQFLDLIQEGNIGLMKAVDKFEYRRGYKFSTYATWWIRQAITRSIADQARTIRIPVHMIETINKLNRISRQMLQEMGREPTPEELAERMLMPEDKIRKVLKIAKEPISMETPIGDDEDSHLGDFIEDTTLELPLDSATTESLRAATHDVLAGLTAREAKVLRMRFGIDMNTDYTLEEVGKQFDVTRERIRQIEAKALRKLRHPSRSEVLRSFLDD

[3] = test system: strain RL602; experiment: Growth with plasmid-derived wild type or mutant β′ as sole source of β′ subunit; type: cell-based; settings: 42° C., mutant β′ as sole source of β′
Experimental: Plasmids pTA577, 600-609 (0.1 μg) were transformed into strain RL602 (Weilbaecher et al., 1994; Ridley et al., 1982). After heat shock and incubation on ice, 300 μl of LB was added to the 50 μl cell mixture. Ten μl of the transformation reaction was spotted onto LB plates plus ampicillin (100 μg/ml) and incubated at 30° C. Another 10 μl was spotted onto plates and incubated at 42° C. The plates were incubated between 24-48 hours and assessed for growth.
To assess the importance of the σ^70 binding site in vivo, the ability of mutant β′ subunits to function as the cell's sole source of β′ was assessed. Plasmids containing either mutant or wild type, full length β′ were transformed into strain RL602 (Weilbaecher et al., 1994; Ridley et al., 1982). The chromosomal rpoC gene of RL602 has an amber mutation that prevents functional β′ from being produced in the absence of a suppressor tRNA. RL602 also has a chromosomal, temperature-sensitive, amber suppressor. At the permissive temperature (30° C.) the amber suppressor is active and allows chromosomal β′ to be produced and the cell can grow. The amber suppressor is not active at the non-permissive temperature (42° C.). Therefore, at 42° C., chromosomal β′ is not made and the cell cannot grow without another source of β′. If the plasmid-derived β′ can complement the loss of β′, the cells will grow and form colonies on plates at the non-permissive temperature. If the mutant β′ cannot complement, there will be no growth on the plates at this temperature.

[4] = target: T1, σ^70; settings: for Eσ^70 formation / binding σ^70: log and stationary phase samples
Experimental: (§1) One L flasks containing 200 ml of LB with ampicillin (100 μg/ml) and IPTG (0.15 mM) were inoculated with 200 μl from an overnight culture of cells containing plasmids pTA561, 577, 600-609. The cultures were grown at 37° C. with shaking until the A600=0.4 for log phase assays and 2 hours longer (A600 about 2.0) for the early stationary phase assays. The cells were harvested by centrifugation at 6,000 rpm for 10 minutes and stored at −20° C. until use. The cell pellets were resuspended in 5 ml TE (10 mM Tris-HCl, pH 7.9 and 0.1 mM EDTA) plus 0.15 M NaCl and lysozyme (0.1 mg/ml) then incubated on ice for 15 minutes. The cells were sonicated 2×30 seconds and centrifuged for 25 minutes at 27,000×g to pellet the insoluble material. The supernatant was loaded onto a 1.5 ml immunoaffinity column containing the polyol-responsive, anti-β′ monoclonal antibody (MAb), NT73 (Thompson et al., 1992). The column was washed with 15 ml TE plus 0.15 M NaCl followed by a second wash with 10 ml TE plus 0.5 M NaCl. The protein was eluted from the column with 4 ml TE plus 0.7 M NaCl and 30% propylene glycol. The eluted sample (4 ml) was diluted with 6 ml buffer B (20 mM Tris-HCl, pH 7.9, 500 mM NaCl, 5 mM imidazole, 0.1% (v/v) Tween 20, and 10% (v/v) glycerol) and loaded (2×) onto 500 μl of Ni^2+-NTA resin. The resin was washed (2×) with 5 ml of buffer B and eluted with 0.5 ml buffer B plus 0.25 M imidazole. Samples from the elution fractions were assayed by Western blot as described above using Mabs to each subunit or σ factor. The secondary antibodies were horseradish peroxidase-labeled goat antimouse IgG antibodies and the signal was generated using the ECL+ substrate system (Amersham) and detected using the STORM FluoroImager and quantitated with IMAGEQUANT software (Molecular Dynamics).
(§2) To evaluate the potential assembly defects caused by the various mutations, His6-tagged, mutant β′ subunits were expressed in cells that were also expressing wild type, chromosomal β′ proteins. A Ni^2+-NTA column was used to purify the mutant β′ subunits together with associated cell proteins. An immunoaffinity column was used to clean-up the samples in order to reduce any non-specific binding to the Ni^2+-NTA column.
Target sequence in this assay (P00579 whole entry, the tested form may be a part): as above
Target sequence in this assay (P0A8T7 whole entry, further chain, the tested form may be a part): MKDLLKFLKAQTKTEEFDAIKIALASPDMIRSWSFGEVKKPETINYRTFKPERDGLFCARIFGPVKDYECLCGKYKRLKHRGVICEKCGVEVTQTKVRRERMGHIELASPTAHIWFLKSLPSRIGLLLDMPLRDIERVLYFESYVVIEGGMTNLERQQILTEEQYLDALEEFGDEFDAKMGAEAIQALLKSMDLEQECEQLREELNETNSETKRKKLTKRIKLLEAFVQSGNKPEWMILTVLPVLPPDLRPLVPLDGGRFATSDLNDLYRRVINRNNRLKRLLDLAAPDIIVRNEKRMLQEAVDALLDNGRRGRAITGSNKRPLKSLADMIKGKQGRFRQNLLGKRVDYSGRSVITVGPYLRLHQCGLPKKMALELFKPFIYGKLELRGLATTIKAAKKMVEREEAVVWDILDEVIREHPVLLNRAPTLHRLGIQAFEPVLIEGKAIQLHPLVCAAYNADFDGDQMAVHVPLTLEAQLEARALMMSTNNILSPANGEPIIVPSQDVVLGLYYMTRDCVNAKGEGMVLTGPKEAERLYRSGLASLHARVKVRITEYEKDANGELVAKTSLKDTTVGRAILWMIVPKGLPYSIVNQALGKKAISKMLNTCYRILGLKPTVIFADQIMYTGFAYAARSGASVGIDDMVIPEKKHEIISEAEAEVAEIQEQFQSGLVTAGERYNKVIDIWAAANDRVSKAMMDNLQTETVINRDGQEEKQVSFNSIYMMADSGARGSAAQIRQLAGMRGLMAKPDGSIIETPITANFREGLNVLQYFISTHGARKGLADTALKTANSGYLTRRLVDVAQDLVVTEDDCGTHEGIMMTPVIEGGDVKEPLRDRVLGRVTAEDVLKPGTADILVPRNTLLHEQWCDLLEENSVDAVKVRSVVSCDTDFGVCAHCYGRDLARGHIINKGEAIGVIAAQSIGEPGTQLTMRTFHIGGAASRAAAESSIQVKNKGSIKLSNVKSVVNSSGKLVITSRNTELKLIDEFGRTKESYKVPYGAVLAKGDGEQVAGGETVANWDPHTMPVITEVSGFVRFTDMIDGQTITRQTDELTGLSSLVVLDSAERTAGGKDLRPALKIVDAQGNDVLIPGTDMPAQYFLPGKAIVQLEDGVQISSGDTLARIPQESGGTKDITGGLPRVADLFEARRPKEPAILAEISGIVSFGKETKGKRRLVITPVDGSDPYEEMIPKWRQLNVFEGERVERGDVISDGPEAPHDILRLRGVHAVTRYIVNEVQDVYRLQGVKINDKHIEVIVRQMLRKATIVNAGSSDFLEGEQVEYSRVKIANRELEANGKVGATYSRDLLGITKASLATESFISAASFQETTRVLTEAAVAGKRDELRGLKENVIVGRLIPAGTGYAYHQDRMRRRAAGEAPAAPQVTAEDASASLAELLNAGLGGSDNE
Target sequence in this assay (P0A8V2 whole entry, further chain, the tested form may be a part): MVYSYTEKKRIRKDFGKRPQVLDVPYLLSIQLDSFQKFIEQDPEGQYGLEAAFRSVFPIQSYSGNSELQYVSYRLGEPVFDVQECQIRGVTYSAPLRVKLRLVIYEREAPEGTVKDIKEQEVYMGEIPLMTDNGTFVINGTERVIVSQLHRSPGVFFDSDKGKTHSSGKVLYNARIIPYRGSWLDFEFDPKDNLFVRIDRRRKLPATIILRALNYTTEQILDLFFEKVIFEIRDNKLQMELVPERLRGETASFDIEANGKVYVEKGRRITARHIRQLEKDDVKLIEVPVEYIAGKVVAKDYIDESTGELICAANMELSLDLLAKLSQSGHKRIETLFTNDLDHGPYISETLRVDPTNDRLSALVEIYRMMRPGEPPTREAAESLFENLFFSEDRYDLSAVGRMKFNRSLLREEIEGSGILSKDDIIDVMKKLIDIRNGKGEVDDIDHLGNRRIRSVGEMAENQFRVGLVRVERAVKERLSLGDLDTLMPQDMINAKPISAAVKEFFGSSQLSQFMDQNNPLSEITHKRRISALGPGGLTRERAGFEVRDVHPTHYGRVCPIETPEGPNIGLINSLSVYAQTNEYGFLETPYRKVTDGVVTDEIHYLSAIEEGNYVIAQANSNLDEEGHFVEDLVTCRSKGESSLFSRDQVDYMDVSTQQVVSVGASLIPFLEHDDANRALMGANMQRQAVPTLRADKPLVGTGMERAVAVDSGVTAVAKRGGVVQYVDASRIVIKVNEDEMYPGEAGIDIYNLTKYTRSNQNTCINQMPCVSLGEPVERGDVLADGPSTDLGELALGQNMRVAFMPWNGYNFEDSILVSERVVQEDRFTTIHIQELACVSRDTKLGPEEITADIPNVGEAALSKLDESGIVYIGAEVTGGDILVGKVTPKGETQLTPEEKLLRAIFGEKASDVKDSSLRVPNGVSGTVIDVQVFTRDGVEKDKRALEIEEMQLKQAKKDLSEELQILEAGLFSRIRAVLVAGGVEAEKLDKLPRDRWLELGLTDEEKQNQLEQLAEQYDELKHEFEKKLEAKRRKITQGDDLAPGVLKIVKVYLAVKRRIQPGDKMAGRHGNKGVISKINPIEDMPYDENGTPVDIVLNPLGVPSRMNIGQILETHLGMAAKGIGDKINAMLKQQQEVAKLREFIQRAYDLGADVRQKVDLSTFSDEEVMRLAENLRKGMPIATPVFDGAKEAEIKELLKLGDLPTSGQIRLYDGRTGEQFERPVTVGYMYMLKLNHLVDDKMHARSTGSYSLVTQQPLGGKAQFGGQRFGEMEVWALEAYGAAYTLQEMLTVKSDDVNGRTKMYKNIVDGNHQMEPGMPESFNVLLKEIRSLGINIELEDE
Target sequence in this assay (P0A7Z4 whole entry, further chain, the tested form may be a part): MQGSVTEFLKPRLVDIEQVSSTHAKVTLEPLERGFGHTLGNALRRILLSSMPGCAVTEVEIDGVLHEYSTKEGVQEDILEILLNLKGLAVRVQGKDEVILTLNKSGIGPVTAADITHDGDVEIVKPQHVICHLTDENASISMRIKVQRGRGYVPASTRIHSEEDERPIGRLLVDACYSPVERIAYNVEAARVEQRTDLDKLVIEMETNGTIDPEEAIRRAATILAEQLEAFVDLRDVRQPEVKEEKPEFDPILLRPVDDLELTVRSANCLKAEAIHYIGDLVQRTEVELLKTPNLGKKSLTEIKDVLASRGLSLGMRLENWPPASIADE

[5] = target: σ^F (Escherichia coli, UniProt P0AEM6); settings: stationary phase samples
Experimental: as §1, §2
(§3) All of the sample eluates were also assayed for the presence of any minor σ species.

[6] = target: T2, σ^32 (Escherichia coli, UniProt P0AGB3)
T2 sequence (P0AGB3 whole entry, looked up): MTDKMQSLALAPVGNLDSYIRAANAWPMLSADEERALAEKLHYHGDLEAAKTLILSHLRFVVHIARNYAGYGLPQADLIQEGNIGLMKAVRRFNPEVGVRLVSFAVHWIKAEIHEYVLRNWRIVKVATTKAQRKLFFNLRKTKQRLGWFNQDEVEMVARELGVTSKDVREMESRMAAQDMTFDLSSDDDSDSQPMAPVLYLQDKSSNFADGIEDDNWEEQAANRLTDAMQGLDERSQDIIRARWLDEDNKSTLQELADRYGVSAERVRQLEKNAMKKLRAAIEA
Experimental: as §1, §2, §3

labeled σ^70 and β′, sequence (P00579 whole entry C132S/C291S/C295S/S442C, the tested form may be a part): as the sequence (P00579 whole entry, the tested form may be a part) above, with C132S, C291S, C295S, S442C counted along it
labeled σ^70 and β′, sequence (P0A8T7 100-309): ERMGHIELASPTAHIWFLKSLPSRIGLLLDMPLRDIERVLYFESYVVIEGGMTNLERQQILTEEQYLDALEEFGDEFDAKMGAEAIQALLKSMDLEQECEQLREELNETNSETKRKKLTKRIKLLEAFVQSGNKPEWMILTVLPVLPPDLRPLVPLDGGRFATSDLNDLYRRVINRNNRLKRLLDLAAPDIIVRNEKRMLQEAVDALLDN

Molecule	ability to bind σ^70 compared to wt β′1-319 fragment [2]	growth at the non-permissive temperature [3]	Eσ^70 formation / binding σ^70 [4]	further results
C[S+](C)[O-] [DMSO]				effect on LRET signal / competition [1]: no significant effect
CCO [ethanol]				effect on LRET signal / competition [1]: significant effect
A302D (FATSDLNDLYRRVINRNNRLKRLLDLAAPDIIVRNEKRMLQEDVDALLDN)	greatly reduced	could not support growth	defects in binding σ^70	
E295K (FATSDLNDLYRRVINRNNRLKRLLDLAAPDIIVRNKKRMLQEAVDALLDN)	greatly reduced	could not support growth	defects in binding σ^70	
K280E (FATSDLNDLYRRVINRNNRLERLLDLAAPDIIVRNEKRMLQEAVDALLDN)	no effects on binding	no detectable effects on growth	no detectable affect	
N266D (FATSDLDDLYRRVINRNNRLKRLLDLAAPDIIVRNEKRMLQEAVDALLDN)	no effects on binding	allowed some growth	reduced	
N309D (FATSDLNDLYRRVINRNNRLKRLLDLAAPDIIVRNEKRMLQEAVDALLDD)	binding more σ^70 than wild type	no detectable effects on growth	no detectable affect	
Q300E (FATSDLNDLYRRVINRNNRLKRLLDLAAPDIIVRNEKRMLEEAVDALLDN)	binding more σ^70 than wild type	no detectable effects on growth		increase in relative binding ([2]; versus wild type β′1-319): greater than 7 fold; σ^F levels [5]: greatly reduced; amount of σ^32 ([6]; log phase samples): decreased amount; σ^32 levels ([6]; stationary phase samples): greatly reduced
R275Q (FATSDLNDLYRRVINQNNRLKRLLDLAAPDIIVRNEKRMLQEAVDALLDN)	greatly reduced	could not support growth	defects in binding σ^70	
R293Q (FATSDLNDLYRRVINRNNRLKRLLDLAAPDIIVQNEKRMLQEAVDALLDN)	greatly reduced	could support growth	no detectable affect	
R297S (FATSDLNDLYRRVINRNNRLKRLLDLAAPDIIVRNEKSMLQEAVDALLDN)	greatly reduced	could support growth		binding of the minor sigmas ([6]; minor σ's at detectable levels: σ^32 and σ^F): increased binding; Eσ^70 formation ([4]; log phase samples): reduced
Y269A (FATSDLNDLARRVINRNNRLKRLLDLAAPDIIVRNEKRMLQEAVDALLDN)	no effects on binding	no detectable effects on growth	no detectable affect	
